Measurements as given in the supplement of paper PMC6755084.

What follows are sequences tested on F1*sub RNA substrate (template-directed ligation) (assay: fraction ligated after 30 min (ligated reads / total reads); higher = more ligase activity; sequences stand for … in GAGACCGCAACTGAAAAGTTGT…AGTTCTGCACGTAGAAGCAAAAGGC). Settings: 42 °C.
Summary of the method: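 Ribozyme variants were transcribed with T7 from PCR-amplified oligo-pool templates and gel-purified. Ligated and unligated bands, separated on gel, were reverse transcribed with barcoded primers and sequenced on a MiSeq, with core bases filtered at quality ≥20. Fraction ligated per variant was computed as ligated reads divided by total reads.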

Compared with TAACTGTCGTAAGACACTTTGGATGGGTTGA [3d509], TACACTTGTCGAAACACTTTGGATGGGTTGA [3d647] is lower in fraction ligated: 0.175 for the first, 0.16 for the second.

First: ATCACTTGTCGTAAGACCTTTGGATGGGTTA [3d244]
Second: TATACTTGTCGTAAAACTTTGGATGGGTTGA [3d883]
The fraction ligated of the first is lower: 0.645 for the first, 0.799 for the second.

Compared with “TATCATTGTCGTGACACTTTGGATGGGTTGA [3d1214]”, TTCACTTTCGTAAGACACTTTGGAGGGTTGA [3d367] is lower in fraction ligated: 0.792 for the first, 0.0281 for the second.

First: TATACTTGTGAAGACACTTTGGATGGGTTGA [3d829]
Second: TATCACTTGTCGTAGACACTTTGGATGGGTTG [2d233]
The fraction ligated of the first is lower: 0.756 for the first, 0.843 for the second.

First: TTCACTTGTCGAAGACATTTGGATGGGTTGA [3d421]
Second: TATCACTGTCGTAGAACTTTGGATGGGTTGA [3d1388]
The fraction ligated of the first is lower: 0.79 for the first, 0.886 for the second.

Compared with “TATCACTTGTCGTAAGACACTTGATGGTTGA [3d2241]”, ACACTTGTCGTAGACACTTTGGATGGGTTGA [3d33] is higher in fraction ligated: 0.0196 for the first, 0.552 for the second.

Compared with “TATCACTTGTCGTAAGACTTTGATGGGTTGA [3d2108]”, TTCACTTGTCGTAAGCATTTGGATGGGTTGA [3d454] is higher in fraction ligated: 0.76 for the first, 0.769 for the second.

Compared with “TATCATTTCGTAAGACATTTGGATGGGTTGA [3d1148]”, TACACTTGTCGAAGACACTTGGATGGGTTGA [3d652] is lower in fraction ligated: 0.801 for the first, 0.109 for the second.

First: TATCACTTGTCGAAGACACTTTGGAGGGTTA [3d1975]
Second: TATCACTTGTGAAACACTTTGGATGGGTTGA [3d1719]
The fraction ligated of the first is lower: 0.136 for the first, 0.842 for the second.

First: TATCACTTGTCGTAAGACCTTTGGTGGGTTGA [2d264]
Second: TATCACTTGTGTAAGACACTTGGATGGTTGA [3d1790]
The fraction ligated of the first is higher: 0.114 for the first, 0.0286 for the second.

Compared with “TATCATTGTGTAAGACACTTTGGATGGTTGA [3d1184]”, TACCTTGTCGTAAACACTTTGGATGGGTTGA [3d535] is higher in fraction ligated: 0.0387 for the first, 0.418 for the second.

Compared with TACACTTGTCGTAAGAACTTTGGATGGGTTGA [2d59], “TATCACTTGTCGTAAGAACTTGGTGGGTTGA [3d2161]” is higher in fraction ligated: 0.0167 for the first, 0.0804 for the second.

Compared with “TATCACTTTCGTAAACACTTTGGTGGGTTGA [3d1524]”, “TATCATTTCGTAAGACCTTTGGATGGGTTGA [3d1147]” is higher in fraction ligated: 0.0319 for the first, 0.775 for the second.

First: TATCACTTGCGTAGACACTTTGGATGGGTTGA [2d166]
Second: TACATTGTCGTAAGACACTTTGGATGGTTGA [3d563]
The fraction ligated of the first is higher: 0.835 for the first, 0.303 for the second.

Going from ATCATTGTCGTAGACACTTTGGATGGGTTGA [3d92] to “TATCACTTGTCGTGAACTTTGGATGGGTTGA [3d1983]”, the fraction ligated rises from 0.761 to 0.773.

First: TACACTTGTCGTAAGACACTTTATGGGTTGA [3d721]
Second: TATACTTGTCGTAAGAACTTGGATGGGTTGA [3d904]
The fraction ligated of the first is lower: 0.0103 for the first, 0.717 for the second.

Going from TATACTTGTCGTAAGACATTGGATGGGTTGA [3d918] to ATACTTGTCGTAAGACACTTTGGATGGGTTA [3d65], the fraction ligated falls from 0.786 to 0.0347.

First: TTCACTTGTCGTAAACACTTTGGATGGGTTGA [2d35]
Second: TATCCTTGTCGTAAGACACTTTATGGGTTGA [3d1104]
The fraction ligated of the first is higher: 0.646 for the first, 0.0278 for the second.

Compared with “TATCACTGTCGTAAGACACTTTGGAGGGTTG [3d1459]”, “TATCACTTGCGTAAACACTTTGATGGGTTGA [3d1643]” is higher in fraction ligated: 0.0454 for the first, 0.768 for the second.

Compared with “TATCACTTGTCGTAAACCTTTGATGGGTTGA [3d2068]”, “TATCACTTGTCGTAAGCCTTTGGATGGGTTGA [2d245]” is higher in fraction ligated: 0.672 for the first, 0.781 for the second.

Compared with “TATCACTTGTGAAGACACTTGGATGGGTTGA [3d1724]”, “TATCACTTGTCGTAAACACTTTGAGGGTTGA [3d2090]” is lower in fraction ligated: 0.801 for the first, 0.0504 for the second.

First: TATCACTTGTGTAAGAACTTTGGATGGGTTA [3d1770]
Second: TATCACTTGTGTAAGCACTTTGGTGGGTTGA [3d1759]
The fraction ligated of the first is higher: 0.771 for the first, 0.117 for the second.

Compared with “TATCATTGTCGTAAGCCTTTGGATGGGTTGA [3d1238]”, “TATCACTTGTCGTAAGCACTTTGGTGGGTTGA [2d249]” is lower in fraction ligated: 0.798 for the first, 0.14 for the second.

Compared with TTCACTTGTCGTAAGACATTTGGTGGGTTGA [3d479], TACACTTGTCGTAAGAACTTTGGATGGTTGA [3d697] is higher in fraction ligated: 0.0115 for the first, 0.0122 for the second.

First: TACACTTGTGTAAGACCTTTGGATGGGTTGA [3d623]
Second: TATCATTGTCGTAAGCATTTGGATGGGTTGA [3d1239]
The fraction ligated of the first is lower: 0.0441 for the first, 0.796 for the second.

Compared with “TATCACTTTCTAAGACACTTTGGAGGGTTGA [3d1489]”, TTACTTGTCGTAAGACATTTGGATGGGTTGA [3d290] is higher in fraction ligated: 0.026 for the first, 0.517 for the second.

First: ATCACTTGCGTAAGACACTTTGGATGGGTTG [3d155]
Second: TATCACTGTCGTAAGACATTTGGTGGGTTGA [3d1435]
The fraction ligated of the first is higher: 0.805 for the first, 0.752 for the second.

Going from TAACTTGTCGTAAGACACTTTGATGGGTTGA [3d522] to “TATCATTGTTAAGACACTTTGGATGGGTTGA [3d1172]”, the fraction ligated rises from 0.0453 to 0.798.

Compared with ATCACTTGTCGTAGCACTTTGGATGGGTTGA [3d200], ATCACTTGTCGTAAGACACTTTGGATGGTTG [3d274] is lower in fraction ligated: 0.749 for the first, 0.691 for the second.

Compared with TTACTTGTCGTAAGAACTTTGGATGGGTTGA [3d288], TTCACTTTGTAAGACACTTTGGATGGGTTGA [3d355] is higher in fraction ligated: 0.0626 for the first, 0.747 for the second.

First: TATACTTGTCTAAGACACTTTGGTGGGTTGA [3d852]
Second: TACACTTGTCGTAAGAACTTTGGAGGGTTGA [3d696]
The fraction ligated of the first is higher: 0.0368 for the first, 0.0171 for the second.

Compared with TTCATTGTCGTAAGCACTTTGGATGGGTTGA [3d325], TACACTTGTCGTAAGACACTTTGGATGGGTTGA [1d3] is higher in fraction ligated: 0.176 for the first, 0.748 for the second.

Compared with “TATCACTTGTCGTAGCACTTTGGTGGGTTGA [3d2008]”, “TATCCTTGTGTAAGACCTTTGGATGGGTTGA [3d1006]” is higher in fraction ligated: 0.0859 for the first, 0.801 for the second.

Compared with TACACTTGCTAAGACACTTTGGATGGGTTGA [3d602], ATCACTTGTCGTAAGACATTTGGATGGGTTG [3d252] is higher in fraction ligated: 0.196 for the first, 0.739 for the second.

Compared with TATACTTGTCGTAAGACCTTTGGTGGGTTGA [3d913], “TATCACTTGTCGTAAGACACTTGGATGGTTGA [2d280]” is higher in fraction ligated: 0.0382 for the first, 0.0762 for the second.

First: TATCACTTCGTAAGACACTTTGGTGGGTTGA [3d1322]
Second: TATCACTTTGTAAGACACTTTGGATGGGTTG [3d1478]
The fraction ligated of the first is lower: 0.085 for the first, 0.82 for the second.

Compared with TTCACTTGTGTAAGACACTTGGATGGGTTGA [3d395], TATACTTGTCGTAAGACCTTGGATGGGTTGA [3d911] is higher in fraction ligated: 0.161 for the first, 0.777 for the second.

Compared with TATCTTGTCGTAGACACTTTGGATGGGTTGA [3d745], “TATCACTTGTCTAAGAACTTTGGAGGGTTGA [3d1860]” is lower in fraction ligated: 0.819 for the first, 0.108 for the second.

Going from “TATCACTTGTCGTAAGACACTTTGGAGGGTT [3d2279]” to TATACTTTCGTAGACACTTTGGATGGGTTGA [3d799], the fraction ligated rises from 0.0132 to 0.268.

Going from TTCACTTGTGTAAGACACTTTGGATGGTTGA [3d399] to “TATCATTGTCGTAAGCACTTTGATGGGTTGA [3d1241]”, the fraction ligated rises from 0.284 to 0.58.

Going from “TATCACTTGTCGTAAGACCTTGGATGGGTTGA [2d262]” to “TATCACTTTCGAAGACACTTTGGAGGGTTGA [3d1502]”, the fraction ligated falls from 0.791 to 0.0243.

First: ATCACTTGTCGTAAGAATTTGGATGGGTTGA [3d231]
Second: TATATTGTCGTAGACACTTTGGATGGGTTGA [3d764]
The fraction ligated of the first is higher: 0.757 for the first, 0.499 for the second.

Compared with “TATCATTGTCGTAGCACTTTGGATGGGTTGA [3d1216]”, TCACTTGCGTAAGACACTTTGGATGGGTTGA [3d7] is lower in fraction ligated: 0.814 for the first, 0.493 for the second.

Compared with “TATCCTTGTCTAGACACTTTGGATGGGTTGA [3d1016]”, “TATCATTGCGTAAGACCTTTGGATGGGTTGA [3d1163]” is higher in fraction ligated: 0.763 for the first, 0.815 for the second.

Compared with TTCCTTGTCGTAAGACACTTTGGTGGGTTGA [3d312], ATCACTTGTCGTAGACACTTTGGATGGTTGA [3d208] is higher in fraction ligated: 0.204 for the first, 0.766 for the second.

Going from TTCACTGTCGTAAGACACTTTGGATGGGTTGA [2d28] to ATCACTTGTCGTAAGACATTTGATGGGTTGA [3d247], the fraction ligated falls from 0.795 to 0.0818.

Going from “TATCCTTGTCGTAAGACCTTTGATGGGTTGA [3d1084]” to “TATCACTTGTCGTAAGACACTTTGATGGTTG [3d2268]”, the fraction ligated falls from 0.762 to 0.0103.

First: TATCACTTGTGTGACACTTTGGATGGGTTGA [3d1731]
Second: TATCACTGTCGTAAGACACTGGATGGGTTGA [3d1440]
The fraction ligated of the first is higher: 0.826 for the first, 0.824 for the second.

Going from “TATCCTTGTCGTAAGACACTTTGGATGGGTT [3d1119]” to “TATCACTTGTCGTAAGACCTTTGGATGGGTTA [2d267]”, the fraction ligated rises from 0.0366 to 0.788.

Compared with “TATCACTTGTCGTAGACACTTTGGTGGGTTA [3d2050]”, ATCACTTGTCGTAAACACTTTGGAGGGTTGA [3d217] is higher in fraction ligated: 0.0674 for the first, 0.0797 for the second.

First: TATCACTTGTCGTAAGAACTTTGGAGGGTTG [3d2178]
Second: TATCACTTTGTAGACACTTTGGATGGGTTGA [3d1466]
The fraction ligated of the first is lower: 0.0318 for the first, 0.843 for the second.

Compared with “TATCACTTGTCTAGACACTTTGGAGGGTTGA [3d1832]”, TAACTTTCGTAAGACACTTTGGATGGGTTGA [3d510] is lower in fraction ligated: 0.218 for the first, 0.0478 for the second.

First: TATCATTGTCGAAGACACTTTGGTGGGTTGA [3d1209]
Second: TATCACTTGTCGTAAGACCTTTATGGGTTGA [3d2190]
The fraction ligated of the first is higher: 0.229 for the first, 0.11 for the second.

First: ACACTTGTCGTAAGACACTTTGATGGGTTGA [3d40]
Second: TACCTTGTCGTAGACACTTTGGATGGGTTGA [3d534]
The fraction ligated of the first is lower: 0.0824 for the first, 0.697 for the second.

First: TATCACTTTCGTGACACTTTGGATGGGTTGA [3d1506]
Second: TATCACTTGTCGTAAGACACTTTGGTGGTTGA [2d290]
The fraction ligated of the first is higher: 0.813 for the first, 0.0232 for the second.

Going from “TATCACTTGCTAAGACATTTGGATGGGTTGA [3d1605]” to “TATCACTTGTCAAGACACTTTGGATGGGTTGA [2d194]”, the fraction ligated falls from 0.849 to 0.809.
